One molecule from patent US10413588B2, “Probiotic function of human intelectin” (Wisconsin Alumni Research Foundation, priority 2015, dated 2019) can be followed below.

Test [1] in a line: Microbial Glycan Microarray (MGMv2). The settings on record: Strep-hIntL-1 50 μg/mL; terminal α-Galf residue. Format: binding, E. coli. As to the method:
(§1) Strep-hIntL-1 was used to interrogate the Microbial Glycan Microarray version 2 (MGMv2). Construction of the MGMv2 is previously described. Briefly, bacterial polysaccharide samples were dissolved and diluted to 0.5 mg/mL in printing buffer (150 mM sodium phosphate buffer (8.4)+0.005% Tween-20). Samples were immobilized on NETS-activated glass slides (SlideH, Schott/Nexterion) using a MicroGrid II (Digilab) contact microarray printer equipped with SMP-4B printing pins (Telechem). Six replicates of each bacterial glycan sample were printed. Covalent coupling of glycans to the surface was facilitated by incubation for 1 hour postprint at 100% relative humidity. The remaining reactive NHS-moieties were quenched using a blocking solution (50 mM ethanolamine in 50 mM borate buffer (9.2)). Blocked slides were stored at −20° C. until assays were performed. […] The Strep-Tag® II on bound hIntL-1 was detected using StrepMAB-Classic Chromeo647 (10 μg/mL, IBA GmbH Lifesciences) diluted in binding buffer applied directly to the array surface and allowed to incubate for 1 hour. […] Signal data was calculated as the average of 4 values after removing the high and low values of the 6 replicates. Data were plotted using Excel (Microsoft) as average Relative Fluorescence Units (RFU) versus print identification number. […]

Test [2] can be described thus: hIntL-1 surface plasmon resonance (SPR). Format: binding. Here is the method: All hIntL-1 SPR was performed on a ProteOn XPR36 (Bio-Rad) at the University of Wisconsin-Madison Department of Biochemistry Biophysics Instrumentation Facility (BIF). To measure hIntL-1 binding, ProteOn NLC sensor chips (Bio-Rad) (NeutrAvidin coated chips) were used to capture carbohydrate-biotin ligand. All experiments presented here were conducted at surface saturated levels of ligand, ˜200 RU. In all experiments, captured biotin served as a control. Samples containing purified hIntL-1 were prepared by serial dilution into hIntL-1 SPR running buffer (20 mM HEPES (7.4) 150 mM NaCl, 1 mM CaCl2, and 0.005% tween-20). Surfaces were regenerated with short injections of 10 mM HCl. All data was interspot corrected and processed using the Bio-Rad ProteOn software package.

A short description of test [3]: Microbial Glycan Microarray (MGMv2). The test is classed as binding, Shigella boydii. The settings on record: Strep-hIntL-1 50 μg/mL; terminal α-Galf residue. As to the method: as §1
Test [4] can be described thus: Microbial Glycan Microarray (MGMv2). The test is classed as binding, S. pneumonia. As to conditions: Strep-hIntL-1 50 μg/mL; α-Galf containing glycan. As to the method:
as §1

The nature of test [5]: hIntL-1 carbohydrate binding ELISA-like assay. The settings on record: ligands other than β-Galf. As to the method:
To fabricate carbohydrate-displaying surfaces, 0.5 μg of streptavidin (Prozyme, cat. no. SA20) was adsorbed onto a Maxisorp (Nunc) flat bottom 96 well plate in PBS. Wells were washed with PBS and then coated with 5 μM of carbohydrate-biotin ligand in PBS for 1 hour at 22° C. Wells were blocked with bovine serum albumin (BSA) in ELISA buffer (20 mM HEPES (7.4) 150 mM NaCl, 10 mM CaCl2, and 0.1% tween-20). Samples containing hIntL-1 were prepared by serial dilution into ELISA buffer+0.1% BSA and added to wells for 2 hours at 22° C. Wells were washed four times with ELISA buffer. Bound hIntL-1 was detected using 0.75 μg/mL of a sheep IgG hIntL-1 antibody (R&D Systems, cat. no. AF4254) in ELISA buffer+0.1% BSA for 2 hours at 22° C. Wells were washed with ELISA buffer. A donkey anti-sheep IgG horseradish peroxidase (HRP) conjugate (Jackson ImmunoResearch Laboratories) was added at a 1:5,000 dilution in ELISA buffer+0.1% BSA for 1 hour at 22° C. Wells were washed and hIntL-1 was detected colorimetrically with addition of 1-Step Ultra TMB-ELISA (Pierce). Once sufficient signal was achieved (typically <2 min.), the reaction was quenched with addition of equal volume 2 M H2SO4. Plates were read at 450 nm on an ELx800 plate reader (Bio-Tek). When testing the Ca^2+ dependency of hIntL-1, 1 mM EDTA replaced 10 mM CaCl2 in all steps. Data were analyzed on Prism6 (GraphPad). […]

B1: hIntL-1: human lectin intelectin-1, accession no. Q8WWA0; recombinant disulfide-linked trimer from HEK 293T cells, used also N-terminally Strep-tagged (Strep-hIntL-1) (protein, listed as Homo sapiens)
chain: MNQLSFLLFLIATTRGWSTDEANTYFKEWTCSSSPSLPRSCKEIKDECPSAFDGLYFLRTENGVIYQTFCDMTSGGGGWTLVASVHENDMRGKCTVGDRWSSQQGSKAVYPEGDGNWANYNTFGSAEAATSDDYKNPGYYDIQAKDLGIWHVPNKSPMQHWRNSSLLRYRTDTGFLQTLGHNLFGIYQKYPVKYGEGKCWTDNGPVIPVVYDFGDAQKTASYYSPYGQREFTAGFVQFRVFNNERAANALCAGMRVTGCNTEHHCIGGGGYFPEASPQQCGDFSGFDWSGYGTHVGYSSSREITEAAVLLFYR
B1: the figures for the “signal on microbial glycan array” value in test [1] and in test [3] were 49 RFU and 26 RFU, respectively. In test [2] (attributed to the extended anomeric alkyl linker), the “SPR response to immobilized β-galactopyranose” value was “small response”. The “binding to immobilized β-Galf by SPR” value in test [2] (immobilized carbohydrate-biotin ligand, 1 mM CaCl2) was “robust binding”. The “average signal on microbial glycan array” value in test [4] is recorded as −9.6 RFU. For the same molecule, the “binding to other immobilized carbohydrate ligands” value in test [5] is listed as “not detected”.
